Patent US20130109846A1 (published 2013)

What follows are binders tested against human CD28 (human, UniProt P10747 19-220) (assay: cell-based or functional assay).

Row | Binder | Luciferase assay (EC50) | MLR assay (EC50)
1 | 1h-99-263 (other) VH: EVQLLESGGGLVQPGGSLRLSCAASGFTFYKANMSWVRQAPGKGLEWVSWIEASGVQTFYADSVKGRFTISRDNSKNTLYLQMNSLRAEDTAVYYCAKSPFGPLYGFDYRGQGTLVTVSS | 6 nM | 4 nM
2 | 1h-99-264 (other) VH: EVQLLESGGGLVQPGGSLRLSCAASGFTFDKSNMSWVRQAPGKGLEWVSWIEAPGVQTFYADSVRGRFTISRDNSKNTLYLQMNSLRAEDTAVYYCARSPFGPLYGFDYRGQGTLVTVSS | 5 nM | 3 nM
3 | 1h-99-266 (other) VH: EVQLLESGGGLVQPGGSLRLSCAASGFTFYRSNMSWVRQAPGKGLEWVSWIEAPGVQTFYADSVRGRFTISRDNSKNTLYLQMNSLRAEDTAVYYCARSPFGPLYGFDYRGQGTLVTVSS | 8 nM | 4 nM
4 | 1h-99-267 (other) VH: EVQLLESGGGLVQPGGSLRLSCAASGFTFYRSNMSWVRQAPGKGLEWVSWIEASGVQTFYADSVKGRFTISRDNSKNTLYLQMNSLRAEDTAVYYCAKSPFGPLYGFDYRGQGTLVTVSS | 6 nM | 4 nM
5 | 1h-99-268 (other) VH: EVQLLESGGGLVQPGGSLRLSCAASGFTFKSANMSWVRQAPGKGLEWVSWIEAPGVQTFYADSVRGRFTISRDNSKNTLYLQMNSLRAEDTAVYYCARSPFGPLYGFDYRGQGTLVTVSS | 11 nM | 13 nM
6 | 1h-99-269 (other) VH: EVQLLESGGGLVQPGGSLRLSCAASGFTFKSANMSWVRQAPGKGLEWVSWIEASGVQTFYADSVKGRFTISRDNSKNTLYLQMNSLRAEDTAVYYCAKSPFGPLYGFDYRGQGTLVTVSS | 10 nM | 5 nM
7 | 1h-99-270 (other) VH: EVQLLESGGGLVQPGGSLRLSCAASGFTFYKANMSWARQAPGKGLEWVSWIEASGVQTFYADSVKGRFTISRDNSKNTLYLQMNSLRAEDTAVYYCAKSPFGPLYGFDYRGQGTLVTVSS | 4 nM | 6 nM
8 | 1h-35-5 (other) VL: DIQMTQSPSSLSASVGDRVTITCRASQYIGSAISWYQQKPGRAPKLLIYRASYLQSGVPSRFSGSGSGTDFTLTISSLQPEDFATYYCQQLAIRPFTFGQGTKVGIKR | 261 nM | 248 nM
9 | 1h-99-275 (other) VH: EVQLLESGGGLVQPGGSLRLSCAASGFTFKDKNMSWARQAPGKGLEWVSWIEDTGTQTFYADSVKGRFTISRDNSKNTLYLQMNSLRAEDTAVYYCARSPFGPLYGFDYRGQGTLVTVSS | 6 nM | 10 nM
10 | 1h-99-276 (other) VH: EVQLLESGGGLVQPGGSLRLSCAASGFTFNRANMSWARQAPGKGLEWVSWIEDTGTQTFYADSVKGRFTISRDNSKNTLYLQMNSLRAEDTAVYYCAKSPFGPLYGFDYRGQGTLVTVSS | 5 nM | 18 nM
11 | 1h-99-277 (other) VH: EVQLLESGGGLVQPGGSLRLSCAASGFTFDSANMSWARQAPGKGLEWVSWIEAVGVQTFYADSVKGRFTISRDNSKNTLYLQMNSLRAEDTAVYYCAKSPFGPLYGFDYRGQGTLVTVSS | 6 nM | 9 nM
12 | 1h-99-278 (other) VH: EVQLLESGGGLVQPGGSLRLSCAASGFTFPHSNMSWARQAPGKGLEWVSWIEDTGTQTFYADSVKGRFTISRDNSKNTLYLQMNSLRAEDTAVYYCAKSPFGPLYGFDYRGQGTLVTVSS | 12 nM | 13 nM
13 | 1h-99-297 (other) VH: EVQLLESGGGLVQPGGSLRLSCAASGFTFDSANMSWARQAPGKGLEWVSWIEAIGVQTFYADSVKGRFTISRDNSKNTLYLQMNSLRAEDTAVYYCAKSPFGPLYGFDYRGQGTLVTVSS | 6 nM | 6 nM
14 | 1h-100 (other) VH: EVQLLESGGGLVQPGGSLRLSCAASGFTFESYWMSWVRQAPGKGLEWVSTIADTGGLTYYADSVKGRFTISRDNSKNTLYLQMNSLRAEDTAVYYCAKVAYVLDDQPAFDYWGQGTLVTVSS | > 7000 nM | 
15 | 1h-114 (other) VH: EVQLLESGGGLVQPGGSLRLSCAASGFTFASYSMAWVRQAPGKGLEWVSTIMPSGQRTYYADSVKGRFTISRDNSKNTLYLQMNSLRAEDTAVYYCAKNQSHQRRGIFDYWGQGTLVTVSS | 3100 nM | 
16 | 1h-115 (other) VH: EVQLLESGGGLVQPGGSLRLSCAASGFTFSEYSMAWVRQAPGKGLEWVSHISRDGEFTYYADSVKGRFTISRDNSKNTLYLQMNSLRAEDTAVYYCAKGNADLGWVQPHLFVYWGQGTLVTVSS | 4000 nM | > 7000 nM
17 | 1h-119 (other) VH: EVQLLESGGGLVQPGGSLRLSCAASGFTFTDRCMMWVRQAPGKGLEWVSSIQVEGNHTYYADSVKGRFTISRDNSKNTLYLQMNSLRAEDTAVYYCAKCMTVGPGNSFDYWGQGTLVTVSS | 2800 nM | 
18 | 1h-35-7 (other) VL: DIQMTQSPSSLSASVGDRVTITCRASQYIGSALGWYQQKPGKAPKLLIYRASNLQSGVPSRFSGSGYGTGFTLTISSLQPEDFATYYCQQLAIRPFTFGQGTKVEIKR | 79 nM | 270 nM
19 | 1h-35-9 (other) VL: DIQMTQSPSSLSASVGDRVTITCRASQYIGSALGWYQQKPGKAPKLLIYRASNMQSGVPSRFSGSGSGTDFTLTISSLQPEDFATYYCQQLAIRPFTFGQGTKVEIKR | 278 nM | 318 nM
20 | 1h-36-6 (other) VL: DIQMTQSPSSLSASVGDRVTITCRASRDIALDLLWYQLKPGKAPKLLIKGWSGLQSGVPSRFSGSGSGTDFTLTISSLQPEDFATYFCAQGWGRPVTFGQGTKVEIKR | 162 nM | 260 nM
21 | 1h-38 (other) VL: DIQMTQSPSSLSASVGDRVTITCRASQPIGSVLAWYQQKPGKAPKLLIYFSSILQSGVPSRFSGSGSGTDFTLTISGLQPEDFATYYCQQALRSPFTFGQGTKVEIKR | 650 nM | 725 nM
22 | 1h-39 (other) VL: DIQMTQSPSSLSASVGDRVTITCRASQYIGTALHWYQQKPGKAPRLLIYLSSNLQSGVPSRFSGSGSGTDFTLTISSLQPEDFATYYCQQSALNPYTFGQGTKVEIKR | 1300 nM | 
23 | 1h-69 (other) VL: DIQMTQSPSSLSASVGDRVTITCRASQKIGTGLRWYQQKPGKAPKLLIYRASVLQSGVPSRFSGSGSGTDFTLTISSLQPEDFATYYCQQTAFPPYTFGQGTKVEIKR | > 7000 nM | 
